The record followed here is paper PMC4081113, “Cationic Surfactant-Based Colorimetric Detection of Plasmodium Lactate Dehydrogenase, a Biomarker for Malaria, Using the Specific DNA Aptamer”.

Data set [1] deals with Plasmodium vivax lactate dehydrogenase (PvLDH) (Plasmodium vivax, UniProt Q4PRK9 1-316). As to the kind of experiment: colorimetric AuNP/CTAB aggregation assay (A650/A520). The settings on record: protein: recombinant; chain copies: 4.
The target of data set [2] is fibrinogen (human, UniProt P02671-2;P02675;P02679-2 20-644;31-491;27-437). As to the kind of experiment: colorimetric AuNP/CTAB aggregation assay (A650/A520); 1 uM protein, 4 nM CTAB; 20 mM HEPES pH 7.4, room temperature, 20 nM aptamer with protein 20 min, then 4 nM CTAB 20 min, then AuNPs 5 min (200 uL final). The settings on record: protein: commercial; chain copies: 2;2;2.

Data set [3] has as its target human lactate dehydrogenase A chain (hLDHA) (human, UniProt P00338 2-332). The description is as above.
The target of data set [4] is Plasmodium falciparum lactate dehydrogenase (PfLDH) (Plasmodium falciparum, UniProt Q76NM3 1-316). In words: colorimetric AuNP/CTAB aggregation assay (A650/A520); 4 nM CTAB, 20 nM aptamer; LOD 2.94 pM (not a Kd); 20 mM HEPES pH 7.4, room temperature, 20 nM aptamer with protein 20 min, then 4 nM CTAB 20 min, then AuNPs 5 min (200 uL final). The settings on record: protein: recombinant; chain copies: 4.

Chain of fibrinogen (P02671 other isoform, or with tags, fused parts or gaps, chain 1 of 3): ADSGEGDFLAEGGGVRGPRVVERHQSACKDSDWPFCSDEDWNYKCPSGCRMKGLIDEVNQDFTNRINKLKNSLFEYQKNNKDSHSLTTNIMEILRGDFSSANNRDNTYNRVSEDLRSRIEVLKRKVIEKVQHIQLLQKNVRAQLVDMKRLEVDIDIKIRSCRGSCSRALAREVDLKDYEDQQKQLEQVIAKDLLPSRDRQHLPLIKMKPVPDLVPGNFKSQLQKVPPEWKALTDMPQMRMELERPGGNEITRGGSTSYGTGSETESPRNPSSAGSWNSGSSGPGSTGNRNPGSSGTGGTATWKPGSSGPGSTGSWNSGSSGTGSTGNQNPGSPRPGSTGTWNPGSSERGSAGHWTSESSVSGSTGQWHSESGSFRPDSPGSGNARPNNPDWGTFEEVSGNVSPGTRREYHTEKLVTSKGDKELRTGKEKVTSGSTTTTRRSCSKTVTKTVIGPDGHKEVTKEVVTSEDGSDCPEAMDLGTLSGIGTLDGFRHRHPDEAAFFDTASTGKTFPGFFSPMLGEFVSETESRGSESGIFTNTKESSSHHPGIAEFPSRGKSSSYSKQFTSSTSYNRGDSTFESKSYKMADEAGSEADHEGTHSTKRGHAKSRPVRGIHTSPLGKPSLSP
Chain of fibrinogen (P02675 31-491, chain 2 of 3): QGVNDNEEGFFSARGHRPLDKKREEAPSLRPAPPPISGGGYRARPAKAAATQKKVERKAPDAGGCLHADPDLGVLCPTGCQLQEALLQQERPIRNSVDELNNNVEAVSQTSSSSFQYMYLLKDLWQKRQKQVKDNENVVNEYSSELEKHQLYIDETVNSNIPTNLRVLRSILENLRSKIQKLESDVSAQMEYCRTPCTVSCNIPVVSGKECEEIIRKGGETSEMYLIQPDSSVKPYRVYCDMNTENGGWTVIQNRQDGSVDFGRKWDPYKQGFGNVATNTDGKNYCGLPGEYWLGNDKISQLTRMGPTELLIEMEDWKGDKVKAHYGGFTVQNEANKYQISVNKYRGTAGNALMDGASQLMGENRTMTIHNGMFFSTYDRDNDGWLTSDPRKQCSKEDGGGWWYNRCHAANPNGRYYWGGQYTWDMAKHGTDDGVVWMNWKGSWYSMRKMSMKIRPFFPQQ
Chain of fibrinogen (P02679 other isoform, or with tags, fused parts or gaps, chain 3 of 3): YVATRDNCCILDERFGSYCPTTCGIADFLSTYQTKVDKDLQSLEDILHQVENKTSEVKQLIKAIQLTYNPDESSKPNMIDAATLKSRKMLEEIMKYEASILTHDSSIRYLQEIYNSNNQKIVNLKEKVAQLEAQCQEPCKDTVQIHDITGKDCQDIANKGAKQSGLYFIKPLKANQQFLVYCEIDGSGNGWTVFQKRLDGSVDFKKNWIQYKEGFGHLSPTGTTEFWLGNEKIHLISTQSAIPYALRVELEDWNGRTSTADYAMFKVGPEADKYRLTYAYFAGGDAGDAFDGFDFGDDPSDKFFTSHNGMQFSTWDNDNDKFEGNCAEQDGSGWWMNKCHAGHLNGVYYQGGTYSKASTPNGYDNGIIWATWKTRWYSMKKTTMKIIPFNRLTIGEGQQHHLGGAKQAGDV

Consider GTTCGATTGGATTGTGCCGGAAGTGCTGGCTCGAAC (ssDNA) [pL1 aptamer], for which the binding result in data set [1] is “binds”; in data set [2], “no binding”; in data set [3], “no binding”; in data set [4], “binds”.
